Among the data in the Immune Epitope Database (IEDB) are Kd values, retold here.

Some targets named below: HLA-A*11:01; HLA-A*33:01; HLA-A*03:01; HLA-A*31:01; HLA-A*68:01.
Holding throughout (test): IEDB peptide-MHC binding, purified MHC/competitive/radioactivity; filed as Kd, often an IC50 or EC50 that approximates it; ≥ and ≤ were set here for values at or beyond the usual limits of such assays
Setting [1] is: source organism: Vaccinia virus Copenhagen.
The mark [2] stands for this setting: source organism: Vaccinia virus WR.
Setting [3] is: source organism: SARS coronavirus Tor2.
[4] abbreviates: source organism: Mammarenavirus machupoense.
Setting [5] is: source organism: Lymphocytic choriomeningitis virus (strain Armstrong).

For orientation: Kd means the free concentration of one partner at which half of the binding sites on the other are occupied at equilibrium, for simple one-to-one binding. As to IFAFIDFSK, the Kd in the experiment with HLA-A*11:01 (setting [1]) turned out to be 20.5 nM; with HLA-A*33:01 (setting [1]), 0.0426 µM; with HLA-A*03:01 (setting [1]), 78.2 nM; with HLA-A*31:01 (setting [1]), 251 nM; with HLA-A*68:01 (setting [1]), 8.56 nM.
Consider KIVDHIVMY, for which the Kd in the experiment with HLA-A*11:01 (setting [2]) was 92.2 nM; with HLA-A*33:01 (setting [2]) it was no less than 24.8 µM; with HLA-A*03:01 (setting [2]), 17.9 nM; with HLA-A*31:01 (setting [2]), 11800 nM; in the experiment with HLA-A*68:01 (setting [2]), 7980 nM.
As for RVDIYYNGNK, the equilibrium dissociation constant (Kd) with HLA-A*11:01 (setting [2]) is 4.86 nM; with HLA-A*33:01 (setting [2]), no less than 53.6 µM; with HLA-A*03:01 (setting [2]) it was 45.6 nM; with HLA-A*31:01 (setting [2]) it was 5360 nM; in the experiment with HLA-A*68:01 (setting [2]), 120 nM.
Consider DFYDFAVSK, for which the dissociation constant (Kd) with HLA-A*11:01 (setting [3]) came to 8940 nM; with HLA-A*33:01 (setting [3]), 0.00936 µM; in the experiment with HLA-A*03:01 (setting [3]) it was 4110 nM; with HLA-A*31:01 (setting [3]) it was 12400 nM; in the experiment with HLA-A*68:01 (setting [3]), 56.9 nM.
YFTFGDTALY: the equilibrium dissociation constant (Kd) is 6400 nM with HLA-A*11:01 (setting [2]); no less than 45.3 µM in the experiment with HLA-A*33:01 (setting [2]); 9010 nM in the experiment with HLA-A*03:01 (setting [2]); no less than 48000 nM with HLA-A*31:01 (setting [2]); 49.9 nM with HLA-A*68:01 (setting [2]).
Turning to NLPYNWKNFY, the dissociation constant (Kd) in the experiment with HLA-A*11:01 (setting [2]) came to 4360 nM; with HLA-A*33:01 (setting [2]), 18.6 µM; in the experiment with HLA-A*03:01 (setting [2]), 1780 nM; with HLA-A*31:01 (setting [2]), 1720 nM; with HLA-A*68:01 (setting [2]), 626 nM.
As for TVYDDAARR, the Kd in the experiment with HLA-A*11:01 (setting [3]) was determined as 97.1 nM; in the experiment with HLA-A*33:01 (setting [3]), 4.97 µM; in the experiment with HLA-A*03:01 (setting [3]), 455 nM; with HLA-A*31:01 (setting [3]), 1160 nM; with HLA-A*68:01 (setting [3]) it was 2.54 nM.
As to GILKKLSSIK, the Kd in the experiment with HLA-A*11:01 (setting [2]) was 375 nM; with HLA-A*33:01 (setting [2]), no less than 70 µM; in the experiment with HLA-A*03:01 (setting [2]), 13.9 nM; in the experiment with HLA-A*31:01 (setting [2]), 5480 nM; with HLA-A*68:01 (setting [2]) it was no less than 20100 nM.
For ISARALKAY, the dissociation constant Kd was 334 nM with HLA-A*11:01 (setting [2]); 16.4 µM with HLA-A*33:01 (setting [2]); 542 nM with HLA-A*03:01 (setting [2]); 9600 nM with HLA-A*31:01 (setting [2]); 2470 nM with HLA-A*68:01 (setting [2]).
With QLMYALEPRK, the dissociation constant Kd is 85 nM with HLA-A*11:01 (setting [1]); no less than 70 µM in the experiment with HLA-A*33:01 (setting [1]); 150 nM with HLA-A*03:01 (setting [1]); 8370 nM with HLA-A*31:01 (setting [1]); 83.8 nM with HLA-A*68:01 (setting [1]).
Consider LSRLRYNLCK, for which the equilibrium dissociation constant (Kd) was found to be 715 nM in the experiment with HLA-A*11:01 (setting [2]); 2.64 µM in the experiment with HLA-A*33:01 (setting [2]); 92.9 nM with HLA-A*03:01 (setting [2]); 206 nM with HLA-A*31:01 (setting [2]); 3510 nM with HLA-A*68:01 (setting [2]).
Taken in the same sequence, the figures for IFREIASSMK were 1570 nM, 0.467 µM, 198 nM, 425 nM and 3470 nM.
For the sequence CVDIPGIPK, the Kd in the experiment with HLA-A*11:01 (setting [3]) is 19.9 nM; with HLA-A*33:01 (setting [3]), no less than 37.9 µM; with HLA-A*03:01 (setting [3]), 149 nM; in the experiment with HLA-A*31:01 (setting [3]), no less than 10000 nM; in the experiment with HLA-A*68:01 (setting [3]), 102 nM.
Consider SVEDVSAFVR, for which the Kd with HLA-A*11:01 (setting [2]) was 36.8 nM; with HLA-A*33:01 (setting [2]) it was 2.12 µM; with HLA-A*03:01 (setting [2]), no less than 70100 nM; with HLA-A*31:01 (setting [2]) it was 656 nM; with HLA-A*68:01 (setting [2]), 15.6 nM.
With PISELSRLRY, the dissociation constant (Kd) was 735 nM with HLA-A*11:01 (setting [2]); 15.5 µM in the experiment with HLA-A*33:01 (setting [2]); 3270 nM in the experiment with HLA-A*03:01 (setting [2]); no less than 70000 nM with HLA-A*31:01 (setting [2]); no less than 44900 nM in the experiment with HLA-A*68:01 (setting [2]).
Take FVASFRLFAR: the Kd amounted to 50 nM in the experiment with HLA-A*11:01 (setting [3]); 0.0141 µM with HLA-A*33:01 (setting [3]); 94.2 nM with HLA-A*03:01 (setting [3]); 6.64 nM in the experiment with HLA-A*31:01 (setting [3]); 0.106 nM with HLA-A*68:01 (setting [3]).
For EWMLIAAKMK, the Kd with HLA-A*11:01 (setting [4]) was no less than 24100 nM; with HLA-A*33:01 (setting [4]), 0.049 µM; with HLA-A*03:01 (setting [4]), 5950 nM; with HLA-A*31:01 (setting [4]), 1260 nM; in the experiment with HLA-A*68:01 (setting [4]), 3530 nM.
For ITPDDGLGLR, the Kd with HLA-A*11:01 (setting [2]) was 16200 nM; in the experiment with HLA-A*33:01 (setting [2]) it was 9.91 µM; with HLA-A*03:01 (setting [2]), no less than 70100 nM; with HLA-A*31:01 (setting [2]), 11600 nM; with HLA-A*68:01 (setting [2]), 69.2 nM.
With SVIRLLIWAY, the dissociation constant Kd was 17.3 nM in the experiment with HLA-A*11:01 (setting [2]); 17.6 µM in the experiment with HLA-A*33:01 (setting [2]); 1380 nM with HLA-A*03:01 (setting [2]); 2240 nM with HLA-A*31:01 (setting [2]); 776 nM with HLA-A*68:01 (setting [2]).
Taken in the same sequence, the figures for NTLSERISSK were 0.736 nM, 0.404 µM, 48.8 nM, 1410 nM and 9.48 nM.
For NSESLSLISH, the Kd in the experiment with HLA-A*11:01 (setting [5]) was 8050 nM; with HLA-A*33:01 (setting [5]), no less than 31.8 µM; with HLA-A*03:01 (setting [5]), no less than 23400 nM; with HLA-A*31:01 (setting [5]), 16900 nM; with HLA-A*68:01 (setting [5]) it was no less than 29300 nM.
With VIGLTTHCTK, the dissociation constant (Kd) with HLA-A*11:01 (setting [2]) was 45.9 nM; with HLA-A*33:01 (setting [2]), no less than 35.3 µM; with HLA-A*03:01 (setting [2]), 15.4 nM; with HLA-A*31:01 (setting [2]), 761 nM; with HLA-A*68:01 (setting [2]) it was 73.2 nM.
For NTPLHIVCSK, the Kd is 147 nM in the experiment with HLA-A*11:01 (setting [2]); 7.19 µM in the experiment with HLA-A*33:01 (setting [2]); 32.4 nM with HLA-A*03:01 (setting [2]); 233 nM with HLA-A*31:01 (setting [2]); 10.8 nM with HLA-A*68:01 (setting [2]).
